B1: (m6A)CU (ssRNA)
RNA: ACU
modifications: m6A at position 1
B2: GG(m6A)C (ssRNA)
RNA: GGAC
modifications: m6A at position 3
B3: G(m6A)C (ssRNA)
RNA: GAC
modifications: m6A at position 2
B4: GG(m6A)CU (ssRNA)
RNA: GGACU
modifications: m6A at position 3
B5: G(m6A)CU (ssRNA)
RNA: GACU
modifications: m6A at position 2

Assays:
YTHDC1 YTH domain [1] = biological target: T1, YTHDC1 YTH domain (human, UniProt Q96MU7 345-509); assay: X-ray crystallography
YTHDC1 YTH domain [2] = biological target: T1, YTHDC1 YTH domain; assay: ITC

| Binder | binding result (YTHDC1 YTH domain [1]) | Kd (YTHDC1 YTH domain [2]) [nM] |
| --- | --- | --- |
| B1 | binds | – |
| B2 | binds | – |
| B3 | binds | – |
| B4 | – | 500 |
| B5 | binds | – |

Reference: publication doi:10.1101/787937
